Experiments:
[1] = molecular target: MERS-CoV full-length spike trimer antigen (amino acids 1 to 1275 of the spike protein, lacking the … (MERS-CoV, UniProt K9N5Q8 18-1275))
[2] = molecular target: MERS-CoV S1 antigen (S1 domain, amino acids 1 to 757 of the spike protein) (MERS-CoV, UniProt K9N5Q8 18-757)
[3] = molecular target: T1, MERS-CoV spike protein on live MERS-CoV (EMC, KNIH-002, KNIH-016 and KNIH-042 strains) (MERS-CoV); test: cell-based or functional assay; parameters: ND50 (PRNT with MERS-CoV): unit not given beside the values
T1 chain: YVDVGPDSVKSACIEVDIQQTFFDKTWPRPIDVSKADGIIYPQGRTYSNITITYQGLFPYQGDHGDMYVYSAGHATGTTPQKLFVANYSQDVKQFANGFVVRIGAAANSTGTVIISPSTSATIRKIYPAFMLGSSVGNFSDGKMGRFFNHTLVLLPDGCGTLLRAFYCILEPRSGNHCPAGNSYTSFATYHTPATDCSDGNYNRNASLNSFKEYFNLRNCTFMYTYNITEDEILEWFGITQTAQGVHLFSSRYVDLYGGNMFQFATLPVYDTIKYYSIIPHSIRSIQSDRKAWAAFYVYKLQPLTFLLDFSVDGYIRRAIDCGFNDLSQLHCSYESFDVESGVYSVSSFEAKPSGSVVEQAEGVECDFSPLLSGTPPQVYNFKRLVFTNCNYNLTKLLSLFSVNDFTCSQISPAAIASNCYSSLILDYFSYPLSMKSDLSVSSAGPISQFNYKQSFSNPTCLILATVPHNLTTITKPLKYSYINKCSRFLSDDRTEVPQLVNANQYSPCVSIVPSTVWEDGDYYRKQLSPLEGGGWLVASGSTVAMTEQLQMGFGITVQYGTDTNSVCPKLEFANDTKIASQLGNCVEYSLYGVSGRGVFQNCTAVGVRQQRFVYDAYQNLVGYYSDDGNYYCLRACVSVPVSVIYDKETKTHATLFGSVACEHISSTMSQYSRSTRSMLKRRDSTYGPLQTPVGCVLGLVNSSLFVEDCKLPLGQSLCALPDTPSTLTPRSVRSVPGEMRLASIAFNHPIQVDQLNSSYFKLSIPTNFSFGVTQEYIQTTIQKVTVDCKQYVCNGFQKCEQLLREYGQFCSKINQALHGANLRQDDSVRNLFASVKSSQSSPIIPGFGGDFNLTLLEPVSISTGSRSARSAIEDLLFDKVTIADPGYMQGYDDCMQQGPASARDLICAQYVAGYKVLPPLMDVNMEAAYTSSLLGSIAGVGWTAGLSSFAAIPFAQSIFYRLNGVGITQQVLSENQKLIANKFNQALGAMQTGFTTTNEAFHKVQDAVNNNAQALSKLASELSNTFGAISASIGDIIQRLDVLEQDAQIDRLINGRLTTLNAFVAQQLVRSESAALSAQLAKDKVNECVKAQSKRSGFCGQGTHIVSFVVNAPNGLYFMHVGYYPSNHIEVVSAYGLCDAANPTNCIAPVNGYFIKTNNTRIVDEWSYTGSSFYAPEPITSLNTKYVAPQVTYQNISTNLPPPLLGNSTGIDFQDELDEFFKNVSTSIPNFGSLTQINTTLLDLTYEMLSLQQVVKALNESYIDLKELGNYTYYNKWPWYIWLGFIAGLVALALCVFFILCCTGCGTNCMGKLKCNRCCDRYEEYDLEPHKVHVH

[4] = molecular target: MERS-CoV RBD antigen (receptor binding domain, amino acids 377 to 588 of the spike protein) (MERS-CoV, UniProt K9N5Q8 377-588)

B1: 90-E5 antibody (antibody, V domains shown)
VH: QVQLVQSGAEVKKPGSSVKVSCKASGGTFSSYTINWVRQAPGQGLEWMGGIIPIFGTANYAQKFQGRVTITADASTSTAYMELSSLRSEDTAVYYCARVLLRSSSWFSSNWFDPWGQGTLVTVSS
VL: QSVLTQPPSVSGAPGQRVTISCTGSSSNIGAGYDVHWYQQLPGTAPKVLIYGNSNRPSGVPDRFSGSKSDTSASLAITGLQAEDEADYYCQSYDSSLSVVFGGGTKLTVLG
EC50 (read off the curve) [1]: ~0.01 µg/mL | EC50 (read off the curve) [2]: ~0.03 µg/mL | ND50 (PRNT with MERS-CoV) [3]: 6.6 | ND50 antibody conc. (PRNT with MERS-CoV) [3]: 1.51 µg/mL | EC50 (read off the curve) [4]: ~0.07 µg/mL
